Key:
Free BSA (Sigma A6003) [1] = molecular target: Free BSA (Sigma A6003) (UniProt P02769); test: ELISA, free BSA coated at 300 ng/well, anti-IgG (gamma) detection
Free BSA (Sigma A6003) [2] = molecular target: Free BSA (Sigma A6003) (UniProt P02769); test: ELISA, free BSA coated at 500 ng/well in sodium bicarbonate, gamma detection, antibody at 0.1 µg/ml
Free BSA (Sigma A6003) [3] = molecular target: Free BSA (Sigma A6003) (UniProt P02769); test: ELISA, free BSA coated at 500 ng/well in sodium bicarbonate, gamma detection, antibody at 1 µg/ml
Free BSA (Sigma A6003) [4] = molecular target: Free BSA (Sigma A6003) (UniProt P02769); test: ELISA, free BSA coated at 500 ng/well in sodium bicarbonate, gamma detection, antibody at 10 µg/ml

Chain of UniProt P02769 (P02769 25-607 limits assumed): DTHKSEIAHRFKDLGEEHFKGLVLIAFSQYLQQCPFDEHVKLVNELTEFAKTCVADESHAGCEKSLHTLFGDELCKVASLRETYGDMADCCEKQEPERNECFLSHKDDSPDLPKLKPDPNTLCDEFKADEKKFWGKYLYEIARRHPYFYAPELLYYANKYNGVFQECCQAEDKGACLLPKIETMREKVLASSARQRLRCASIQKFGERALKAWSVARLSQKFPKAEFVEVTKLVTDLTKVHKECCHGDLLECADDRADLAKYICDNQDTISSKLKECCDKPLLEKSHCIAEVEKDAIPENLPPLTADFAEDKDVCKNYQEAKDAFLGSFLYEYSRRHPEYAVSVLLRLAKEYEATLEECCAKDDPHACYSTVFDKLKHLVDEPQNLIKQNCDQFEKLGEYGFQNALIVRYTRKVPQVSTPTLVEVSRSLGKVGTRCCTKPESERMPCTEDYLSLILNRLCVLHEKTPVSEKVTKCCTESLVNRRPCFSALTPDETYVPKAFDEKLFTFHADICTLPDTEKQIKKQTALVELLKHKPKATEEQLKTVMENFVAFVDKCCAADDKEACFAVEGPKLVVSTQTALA

OD (Free BSA (Sigma A6003) [1]) [OD] | OD (Free BSA (Sigma A6003) [2]) [OD] | OD (Free BSA (Sigma A6003) [3]) [OD] | OD (Free BSA (Sigma A6003) [4]) [OD] | Binder
1.29 | 0.079 | 0.119 | 0.15 | 6B5 (antibody, V domains shown) VH: QVQLQQSDAELVKPGASVKISCKVSGYTFTDHTIHWMKQRPEQGLEWIGYNYPRDGSTKYNEKFKGKATLTADKSSSTAYMQLNSLTSEDSAVYFCAKGFITTVVPSAYWGQGTLVTVSA VL: DVQITQSPSYLAASPGETITINCRASKSISKYLAWYQEKPGKTNKLLIYSGSTLQSGIPSRFSGSGSGTDFTLTISSLEPEDFAMYYCQQHNEYPWTFGGGTKLEIK
0.098 | 0.056 | 0.057 | 0.062 | 6C8 (antibody, V domains shown) VH: QVQLQQSGAELVKPGASVKISCKASGYAFSSYWMNWVKQRPGKGLEWIGQIYPGDGDTNYNGKFKGKATLTADKSSSTAYMQLSSLTSEDSAVYFCTRRCYYGLYFDVWGTGTTVTVSS VL: DIKMTQSPSSRYASLGERVTITCKASQDINRYLSWFQQKPGKSPKTLIYRANRLVDGVPSRFSGSGSGQDYSLTISSLEYEDMGIYYCLQYDEFPYTFGGGTKLEIK
0.095 | – | – | – | 9H10 (antibody, IgM, V domains shown) VH: QVQLKQSGPGLVQPSQSLSITCTVSGFSLTSYGVHWVRQSPGKGLEWLGVIWSGGSTDYNAAFISRLSISKDNSKSQVFFKMNSLQADDTAIYYCARNYGYDYAMDYWGQGTSVTVSS VL: DILLTQSPAILSVSPGERVSFSCRASQSIGTSIHWYQQRTNGSPRLLIKYASESISGIPSRFSGSGSGTDFTLSINSVESEDIADYYCQQSNSWPFTFGSGTKLEIK
0.077 | – | – | – | 7B10 (antibody, IgM, V domains shown) VH: QVQLQQSGAELAKPGASVKLSCKASGYTFTSYWMHWVKQRPGQGLEWIGYINPSSGYTKYNQKFKDKATLTADKSSSTAYMQLSSLTYEDSAVYYCARGGYYGFAYWGQGTLVTVSA VL: QIVLTQSPALMSASPGEKVTMTCSASSSVSYMYWYQQKPRSSPKPWIYLTSNLASGVPARFSGSGSGTSYSLTISSMEAEDAATYYCQQWSSNPLTFGAGTKLELK
0.105 | – | – | – | 9H11 (antibody, IgM, V domains shown) VH: QVQLQQSGAELAKPGASVKLSCKASGYTFTSYWMHWVKQRPGQGLEWIGYINPSSGYTKYNQKFKDKATLTADKSSSTAYMQLSSLTYEDSAVYYCARGGYYGFAYWGQGTLVTVSA VL: QIVLTQSPALMSASPGEKVTMTCSASSSVSYMYWYQQKPRSSPKPWIYLTSNLASGVPARFSGSGSGTSYSLTISSMEAEDAATYYCQQWSSNPLTFGAGTKLELK
